Experimental data as given in the RNAGym collection of RNA variant scans (doi:10.7554/elife.80360).

B1: HDV Ribozyme (parent)
chain: GGCCGGCAUGGUCCCAGCCUCCUCGCUGGCGCCGGCUGGGCAACAUUCCGAGGGGACCGUCCCCUCGGUAAUGGCGAAUGGGACCCA

Variants of: B1
Experiment: self-cleavage, relative activity (ratio to wild type); higher = more cleavage; co-transcriptional
Variant GGCCGGCAUGGUCCCAGCCUCCUCGCUGGCGCCGGCUGGGCAACAUUCCGAGGGGACCGUCCCCUCGGUCAUGGCGAAUGGGACCAA has a self-cleavage of 1.11. Work on GGCCGGCAUGGUCCCAGCCUCCUCGCUGGCGCCGGCUGGGCAACAUUCCGAGGGGACCGUCCCCUCGGUCAUGGCGAAUGGGACCUA yielded a self-cleavage of 0.852. GGCCGGCAUGGUCCCAGCCUCCUCGCUGGCGCCGGCUGGGCAACAUUCCGAGGGGACCGUCCCCUCGGCUAUGGCGAAUGGGACCCA showed a self-cleavage of 0.875. GGCCGGCAUGGUCCCAGCCUCCUCGCUGGCGCCGGCUGGGCAACAUUCCGAGGGGACCGUCCCCUCGGCCAUGGCGAAUGGGACCCA showed a self-cleavage of 1.23. GGCCGGCAUGGUCCCAGCCUCCUCGCUGGCGCCGGCUGGGCAACAUUCCGAGGGGACCGUCCCCUCGGAAAUGGCGGAUGGGACCCA gave a self-cleavage of 0.72. For GGCCGGCAUGGUCCCAGCCUCCUCGCUGGCGCCGGCUGGGCAACAUUCCGAGGGGACCGUCCCCUCGGUCUUGGCGAAUGGGACCCA, the self-cleavage was 0.791. Work on GGCCGGCAUGGUCCCAGCCUCCUCGCUGGCGCCGGCUGGGCAACAUUCCGAGGGGACCGUCCCCUCGUUAAUGGCGAAUUGGACCCA yielded a self-cleavage of 0.257. GGCCGGCAUGGUCCCAGCCUCCUCGCUGGCGCCGGCUGGGCAACAUUCCGAGGGGACCGUCCCCUCGGGAAUGACGAAUGGGACCCA showed a self-cleavage of 0.614. In the case of GGCCGGCAUGGUCCCAGCCUCCUCGCUGGCGCCGGCUGGGCAACAUUCCGAGGGGACCGUCCCCUCGGGAAUGUCGAAUGGGACCCA, the self-cleavage is reported as 0.607. In the case of GGCCGGCAUGGUCCCAGCCUCCUCGCUGGCGCCGGCUGGGCAACAUUCCGAGGGGACCGUCCCCUCGGGAAUGGCGGAUGGGACCCA, the self-cleavage is reported as 1.29. With GGCCGGCAUGGUCCCAGCCUCCUCGCUGGCGCCGGCUGGGCAACAUUCCGAGGGGACCGUCCCCUCGGAACUGGCGAAUGGGACCCA the self-cleavage was 0.935. For GGCCGGCAUGGUCCCAGCCUCCUCGCUGGCGCCGGCUGGGCAACAUUCCGAGGGGACCGUCCCCUCGGAAUUGGCGAAUGGGACCCA, the self-cleavage was 1.27. Work on GGCCGGCAUGGUCCCAGCCUCCUCGCUGGCGCCGGCUGGGCAACAUUCCGAGGGGACCGUCCCCUCGGGAAUGGCGAAUGGGACCUA yielded a self-cleavage of 0.723. GGCCGGCAUGGUCCCAGCCUCCUCGCUGGCGCCGGCUGGGCAACAUUCCGAGGGGACCGUCCCCUCGGUCAUGUCGAAUGGGACCCA gave a self-cleavage of 0.504. With GGCCGGCAUGGUCCCAGCCUCCUCGCUGGCGCCGGCUGGGCAACAUUCCGAGGGGACCGUCCCCUCGGCAAUGCCGAAUGGGACCCA the self-cleavage was 0.0923. For GGCCGGCAUGGUCCCAGCCUCCUCGCUGGCGCCGGCUGGGCAACAUUCCGAGGGGACCGUCCCCUCGGGAAUGGCGAAUGGCACCCA, the self-cleavage was 0.429. Variant GGCCGGCAUGGUCCCAGCCUCCUCGCUGGCGCCGGCUGGGCAACAUUCCGAGGGGACCGUCCCCUCGGGAAUGGCGAAUGGUACCCA has a self-cleavage of 0.208. Variant GGCCGGCAUGGUCCCAGCCUCCUCGCUGGCGCCGGCUGGGCAACAUUCCGAGGGGACCGUCCCCUCGGGCAUGGCGAAUGGGACCCA has a self-cleavage of 1.15. GGCCGGCAUGGUCCCAGCCUCCUCGCUGGCGCCGGCUGGGCAACAUUCCGAGGGGACCGUCCCCUCGUUAAUGGAGAAUGGGACCCA showed a self-cleavage of 0.234. With GGCCGGCAUGGUCCCAGCCUCCUCGCUGGCGCCGGCUGGGCAACAUUCCGAGGGGACCGUCCCCUCGGUCAUGGAGAAUGGGACCCA the self-cleavage was 0.123. For GGCCGGCAUGGUCCCAGCCUCCUCGCUGGCGCCGGCUGGGCAACAUUCCGAGGGGACCGUCCCCUCGGCAAUGGCGAAUGGGCCCCA, the self-cleavage was 0.57. In the case of GGCCGGCAUGGUCCCAGCCUCCUCGCUGGCGCCGGCUGGGCAACAUUCCGAGGGGACCGUCCCCUCGGAAAUGGUGAAUGGGACCCA, the self-cleavage is reported as 0.155. With GGCCGGCAUGGUCCCAGCCUCCUCGCUGGCGCCGGCUGGGCAACAUUCCGAGGGGACCGUCCCCUCGGAAAUGGCGAAUGGAACCCA the self-cleavage was 0.233. In the case of GGCCGGCAUGGUCCCAGCCUCCUCGCUGGCGCCGGCUGGGCAACAUUCCGAGGGGACCGUCCCCUCGGCACUGGCGAAUGGGACCCA, the self-cleavage is reported as 0.475. Work on GGCCGGCAUGGUCCCAGCCUCCUCGCUGGCGCCGGCUGGGCAACAUUCCGAGGGGACCGUCCCCUCGGCAAUGGCGAAUGGGACUCA yielded a self-cleavage of 1.15. With GGCCGGCAUGGUCCCAGCCUCCUCGCUGGCGCCGGCUGGGCAACAUUCCGAGGGGACCGUCCCCUCGGGAAUGGCGAAUGGGACCCG the self-cleavage was 0.876. Variant GGCCGGCAUGGUCCCAGCCUCCUCGCUGGCGCCGGCUGGGCAACAUUCCGAGGGGACCGUCCCCUCGUUAAUGGCCAAUGGGACCCA has a self-cleavage of 1.11. Variant GGCCGGCAUGGUCCCAGCCUCCUCGCUGGCGCCGGCUGGGCAACAUUCCGAGGGGACCGUCCCCUCGGCAAUGGCGGAUGGGACCCA has a self-cleavage of 0.997. In the case of GGCCGGCAUGGUCCCAGCCUCCUCGCUGGCGCCGGCUGGGCAACAUUCCGAGGGGACCGUCCCCUCGUUAAUUGCGAAUGGGACCCA, the self-cleavage is reported as 0.0923. With GGCCGGCAUGGUCCCAGCCUCCUCGCUGGCGCCGGCUGGGCAACAUUCCGAGGGGACCGUCCCCUCGUUAAUCGCGAAUGGGACCCA the self-cleavage was 0.205. In the case of GGCCGGCAUGGUCCCAGCCUCCUCGCUGGCGCCGGCUGGGCAACAUUCCGAGGGGACCGUCCCCUCGUUAAUGGCGAAUGGGACACA, the self-cleavage is reported as 0.707. With GGCCGGCAUGGUCCCAGCCUCCUCGCUGGCGCCGGCUGGGCAACAUUCCGAGGGGACCGUCCCCUCGUUAAUGGCGAAUGGGACCCA the self-cleavage was 0.932. Work on GGCCGGCAUGGUCCCAGCCUCCUCGCUGGCGCCGGCUGGGCAACAUUCCGAGGGGACCGUCCCCUCGGGAAUGGGGAAUGGGACCCA yielded a self-cleavage of 0.199. GGCCGGCAUGGUCCCAGCCUCCUCGCUGGCGCCGGCUGGGCAACAUUCCGAGGGGACCGUCCCCUCGUUAAUGGCGGAUGGGACCCA gave a self-cleavage of 0.578. GGCCGGCAUGGUCCCAGCCUCCUCGCUGGCGCCGGCUGGGCAACAUUCCGAGGGGACCGUCCCCUCGUUAAUGGCGCAUGGGACCCA gave a self-cleavage of 0.232. For GGCCGGCAUGGUCCCAGCCUCCUCGCUGGCGCCGGCUGGGCAACAUUCCGAGGGGACCGUCCCCUCGGGAAUGGCGAAUGGGGCCCA, the self-cleavage was 0.739. Work on GGCCGGCAUGGUCCCAGCCUCCUCGCUGGCGCCGGCUGGGCAACAUUCCGAGGGGACCGUCCCCUCGGAAAUGUCGAAUGGGACCCA yielded a self-cleavage of 0.665. For GGCCGGCAUGGUCCCAGCCUCCUCGCUGGCGCCGGCUGGGCAACAUUCCGAGGGGACCGUCCCCUCGGAAAUAGCGAAUGGGACCCA, the self-cleavage was 0.619. With GGCCGGCAUGGUCCCAGCCUCCUCGCUGGCGCCGGCUGGGCAACAUUCCGAGGGGACCGUCCCCUCGGAGAUGGCGAAUGGGACCCA the self-cleavage was 0.98. In the case of GGCCGGCAUGGUCCCAGCCUCCUCGCUGGCGCCGGCUGGGCAACAUUCCGAGGGGACCGUCCCCUCGGAAAUGGCGAAUGUGACCCA, the self-cleavage is reported as 0.332. In the case of GGCCGGCAUGGUCCCAGCCUCCUCGCUGGCGCCGGCUGGGCAACAUUCCGAGGGGACCGUCCCCUCGUUAAUGGCGAAUGGGCCCCA, the self-cleavage is reported as 0.538. Work on GGCCGGCAUGGUCCCAGCCUCCUCGCUGGCGCCGGCUGGGCAACAUUCCGAGGGGACCGUCCCCUCGGGAAUGGCGACUGGGACCCA yielded a self-cleavage of 0.332. Variant GGCCGGCAUGGUCCCAGCCUCCUCGCUGGCGCCGGCUGGGCAACAUUCCGAGGGGACCGUCCCCUCGUUAAUGGCGACUGGGACCCA has a self-cleavage of 0.161. GGCCGGCAUGGUCCCAGCCUCCUCGCUGGCGCCGGCUGGGCAACAUUCCGAGGGGACCGUCCCCUCGUCAAUGGCGAAUGGGACCCA gave a self-cleavage of 0.935. GGCCGGCAUGGUCCCAGCCUCCUCGCUGGCGCCGGCUGGGCAACAUUCCGAGGGGACCGUCCCCUCGGGAAUGGCGAAUGGGAGCCA gave a self-cleavage of 0.639. Variant GGCCGGCAUGGUCCCAGCCUCCUCGCUGGCGCCGGCUGGGCAACAUUCCGAGGGGACCGUCCCCUCGGAAAUGGCGAGUGGGACCCA has a self-cleavage of 0.959. Work on GGCCGGCAUGGUCCCAGCCUCCUCGCUGGCGCCGGCUGGGCAACAUUCCGAGGGGACCGUCCCCUCGGCAAUGGCGAAUGGGAUCCA yielded a self-cleavage of 0.852. GGCCGGCAUGGUCCCAGCCUCCUCGCUGGCGCCGGCUGGGCAACAUUCCGAGGGGACCGUCCCCUCGGCAAUGGCGAAUGUGACCCA showed a self-cleavage of 0.369. Variant GGCCGGCAUGGUCCCAGCCUCCUCGCUGGCGCCGGCUGGGCAACAUUCCGAGGGGACCGUCCCCUCGUUAAUGGCGAAUGAGACCCA has a self-cleavage of 0.492. Work on GGCCGGCAUGGUCCCAGCCUCCUCGCUGGCGCCGGCUGGGCAACAUUCCGAGGGGACCGUCCCCUCGUUAAUGGCGAAUGUGACCCA yielded a self-cleavage of 0.197. GGCCGGCAUGGUCCCAGCCUCCUCGCUGGCGCCGGCUGGGCAACAUUCCGAGGGGACCGUCCCCUCGGGAAUGGCCAAUGGGACCCA gave a self-cleavage of 0.77. With GGCCGGCAUGGUCCCAGCCUCCUCGCUGGCGCCGGCUGGGCAACAUUCCGAGGGGACCGUCCCCUCGGCAAUGGCGAAUCGGACCCA the self-cleavage was 0.0396. In the case of GGCCGGCAUGGUCCCAGCCUCCUCGCUGGCGCCGGCUGGGCAACAUUCCGAGGGGACCGUCCCCUCGGUCAUGGCGAUUGGGACCCA, the self-cleavage is reported as 0.162. In the case of GGCCGGCAUGGUCCCAGCCUCCUCGCUGGCGCCGGCUGGGCAACAUUCCGAGGGGACCGUCCCCUCGGUCAUGGCGAGUGGGACCCA, the self-cleavage is reported as 0.519. With GGCCGGCAUGGUCCCAGCCUCCUCGCUGGCGCCGGCUGGGCAACAUUCCGAGGGGACCGUCCCCUCGGGAAUUGCGAAUGGGACCCA the self-cleavage was 0.314. For GGCCGGCAUGGUCCCAGCCUCCUCGCUGGCGCCGGCUGGGCAACAUUCCGAGGGGACCGUCCCCUCGGCAAUGGCGAUUGGGACCCA, the self-cleavage was 0.375. Variant GGCCGGCAUGGUCCCAGCCUCCUCGCUGGCGCCGGCUGGGCAACAUUCCGAGGGGACCGUCCCCUCGUUAAUGACGAAUGGGACCCA has a self-cleavage of 0.328. For GGCCGGCAUGGUCCCAGCCUCCUCGCUGGCGCCGGCUGGGCAACAUUCCGAGGGGACCGUCCCCUCGUUAAUGCCGAAUGGGACCCA, the self-cleavage was 0.222. For GGCCGGCAUGGUCCCAGCCUCCUCGCUGGCGCCGGCUGGGCAACAUUCCGAGGGGACCGUCCCCUCGGUCAUGGCGAAUAGGACCCA, the self-cleavage was 0.177. For GGCCGGCAUGGUCCCAGCCUCCUCGCUGGCGCCGGCUGGGCAACAUUCCGAGGGGACCGUCCCCUCGGUCAUGGCGAAUCGGACCCA, the self-cleavage was 0.135. In the case of GGCCGGCAUGGUCCCAGCCUCCUCGCUGGCGCCGGCUGGGCAACAUUCCGAGGGGACCGUCCCCUCGGUCAUGGCUAAUGGGACCCA, the self-cleavage is reported as 1.05. For GGCCGGCAUGGUCCCAGCCUCCUCGCUGGCGCCGGCUGGGCAACAUUCCGAGGGGACCGUCCCCUCGGCAAAGGCGAAUGGGACCCA, the self-cleavage was 0.499. With GGCCGGCAUGGUCCCAGCCUCCUCGCUGGCGCCGGCUGGGCAACAUUCCGAGGGGACCGUCCCCUCGGCAACGGCGAAUGGGACCCA the self-cleavage was 0.9. GGCCGGCAUGGUCCCAGCCUCCUCGCUGGCGCCGGCUGGGCAACAUUCCGAGGGGACCGUCCCCUCGGGAAAGGCGAAUGGGACCCA gave a self-cleavage of 0.369.
